Source: US20090196913A1 (published 2009)

Target: human αVβ3/5 integrins on human tumor cells (A375.S2, MDA-MB-231, A2780, HT29, A549) (human, UniProt P06756 31-1048)
Assay: cell-based or functional assay

human αVβ3/5 integrins on human tumor cells (A375.S2, MDA-MB-231, A2780, HT29, A549), sequence (P06756 31-1048): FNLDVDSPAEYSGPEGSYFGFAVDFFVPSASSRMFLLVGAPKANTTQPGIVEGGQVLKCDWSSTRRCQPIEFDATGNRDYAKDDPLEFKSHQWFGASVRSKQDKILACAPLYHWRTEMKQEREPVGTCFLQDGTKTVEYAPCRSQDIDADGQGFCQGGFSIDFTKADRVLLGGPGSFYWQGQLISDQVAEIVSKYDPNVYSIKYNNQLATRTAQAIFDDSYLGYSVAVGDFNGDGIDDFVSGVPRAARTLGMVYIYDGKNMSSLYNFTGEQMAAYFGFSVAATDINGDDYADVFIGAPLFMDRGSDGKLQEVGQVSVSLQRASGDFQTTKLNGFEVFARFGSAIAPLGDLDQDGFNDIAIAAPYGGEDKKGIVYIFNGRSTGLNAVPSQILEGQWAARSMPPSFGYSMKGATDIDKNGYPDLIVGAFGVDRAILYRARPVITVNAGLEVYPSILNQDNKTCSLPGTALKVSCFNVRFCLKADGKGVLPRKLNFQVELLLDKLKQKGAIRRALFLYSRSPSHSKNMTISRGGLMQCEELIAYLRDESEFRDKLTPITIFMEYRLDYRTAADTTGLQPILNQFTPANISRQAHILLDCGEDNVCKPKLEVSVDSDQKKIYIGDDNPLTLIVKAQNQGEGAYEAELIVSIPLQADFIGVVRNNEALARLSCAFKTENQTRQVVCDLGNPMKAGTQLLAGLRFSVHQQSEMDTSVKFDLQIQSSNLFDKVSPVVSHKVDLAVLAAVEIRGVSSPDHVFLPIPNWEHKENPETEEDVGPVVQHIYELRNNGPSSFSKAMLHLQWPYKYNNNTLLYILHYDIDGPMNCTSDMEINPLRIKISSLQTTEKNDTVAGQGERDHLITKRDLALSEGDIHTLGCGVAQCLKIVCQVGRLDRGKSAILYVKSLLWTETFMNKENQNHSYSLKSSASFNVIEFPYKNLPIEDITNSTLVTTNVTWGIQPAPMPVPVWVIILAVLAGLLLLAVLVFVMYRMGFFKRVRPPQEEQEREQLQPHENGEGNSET

- Increase (ratio of IC50 of liposome-entrapped doxorubicin to IC50 of 90:1 integrin-targeted liposomes), breast cancer MDA-MB-231: 5
- Increase (ratio of IC50 of liposome-entrapped doxorubicin to IC50 of 90:1 integrin-targeted liposomes), colon cancer HT29: 1.1
- Increase (ratio of IC50 of liposome-entrapped doxorubicin to IC50 of 90:1 integrin-targeted liposomes), lung cancer A549: 1
- Increase (ratio of IC50 of liposome-entrapped doxorubicin to IC50 of 90:1 integrin-targeted liposomes), melanoma A375.S2: 29
- Increase (ratio of IC50 of liposome-entrapped doxorubicin to IC50 of 90:1 integrin-targeted liposomes), ovarian cancer A2780: 29
B1: CNTO95 Fab′ (from pepsin cleavage, reduction and reoxidation) conjugated to PEG-DSPE on the surface of liposomes (Fab, V domains shown)
VH: QVQLVESGGGVVQPGRSRRLSCAASGFTFSRYTMHWVRQAPGKGLEWVAVISFDGSNKYYVDSVKGRFTISRDNSENTLYLQVNILRAEDTAVYYCAREARGSYAFDIWGQGTMVTVSS
VL: EIVLTQSPATLSLSPGERATLSCRASQSVSSYLAWYQQKPGQAPRLLIYDASNRATGIPARFSGSGSGTDFTLTISSLEPEDFAVYYCQQRSNWPPFTFGPGTKVDIKR
modifications: free sulfhydryl near the C-terminus conjugated to maleimide-PEG-DSPE inserted in the liposome
